Assay results published in the supplement of paper PMC7877785.
± gives the uncertainty stated by the source.

Assay: self-splicing fitness, log relative to wild type (ln ratio); higher = more splicing; Tetrahymena group I intron in knt gene, E. coli kanamycin selection, DiMSum; sequences stand for … in CUCUCU…GGAGGGAAAAGUUAUCAGGCAUGCACCUGGUAGCUAGUCUUUAAACCAAUAGAUUGCAUCGGUUUAAAAGGCAAGACCGUCAAAUUGCGGGAAAGGGGUCAACAGCCGUUCAGUACCAAGUCUCAGGGGAAACUUUGAGAUGGCCUUGCAAAGGGUAUGGUAAUAAGCUGACGGACAUGGUCCUAACCACGCAGCCAAGUCCUAAGUCAACAGAUCUUCUGUUGAUAUGGAUGCAGUUCACAGACUAAAUGUCGGUCGGGGAAGAUGUAUUCUUCUCAUAAGAUAUAGUCGGACCUCUCCUUAAUGGGAGCUAGCGGAUGAAGUGAUGCAACACUGGAGCCGCUGGGAACUAAUUUGUAUGCGAAAGUAUAUUGAUUAGUUUUGGAGUACUCGUGGUCG
In short: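 DiMSum derived fitness as the error-weighted combination of fold changes across replicates, kanamycin versus no kanamycin, normalised to wild type. E. coli BL21(DE3) held the library, which randomised all eight P1ex-region intron nucleotides within the knt kanamycin-resistance gene on pET-22b(+). Six replicate transformations grew overnight at 37°C or 30°C on LB agar with or without 25 μg/mL kanamycin, also containing 100 μg/mL carbenicillin, 50 μM IPTG and 0.2% rhamnose, and pooled colonies were amplicon-sequenced on an Illumina HiSeq 2500.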

Sequence | self-splicing fitness (ln) (30 °C) | self-splicing fitness (ln) (37 °C)
AGUGAGCAAUAUUACGACAC | -2.16 ± 0.29 | -1.64 ± 0.17
AUGGAGCAAUAUUACGCUGU | -2.13 ± 0.21 | -1.37 ± 0.44
GCCCAGCAAUAUUACGGUUA | -0.529 ± 0.054 | 0.488 ± 0.062
GCGGAGCAAUAUUACGGGAU | 0.0919 ± 0.27 | –
AGAGAGCAAUAUUACGCUAG | -2.84 ± 0.28 | -2.91 ± 0.38
CACCAGCAAUAUUACGGGGA | -1.7 ± 0.062 | -0.764 ± 0.067
GUUUAGCAAUAUUACGUCCG | -2.86 ± 0.2 | -1.89 ± 0.29
AUGAAGCAAUAUUACGACCA | 0.00939 ± 0.06 | 0.489 ± 0.083
AAGAAGCAAUAUUACGAGCG | -0.646 ± 0.14 | -0.754 ± 0.2
GUCCAGCAAUAUUACGAUCC | -0.959 ± 0.087 | -0.16 ± 0.11
UCUGAGCAAUAUUACGGUGA | -0.612 ± 0.11 | -0.1 ± 0.13
AGUUAGCAAUAUUACGGCCC | -0.803 ± 0.33 | –
GACCAGCAAUAUUACGUUGU | -1.11 ± 0.047 | -0.336 ± 0.063
CAUUAGCAAUAUUACGUUAG | -0.927 ± 0.092 | -0.609 ± 0.1
UGUGAGCAAUAUUACGCCAA | -1.67 ± 0.5 | -0.355 ± 0.39
GACAAGCAAUAUUACGGGGG | -3.58 ± 0.15 | -3.18 ± 0.2
GACGAGCAAUAUUACGAUCC | -0.986 ± 0.21 | -0.739 ± 0.4
ACGCAGCAAUAUUACGGAUA | -3.47 ± 0.18 | -1.7 ± 0.12
UCGUAGCAAUAUUACGGAUA | -1.59 ± 0.34 | -1.02 ± 0.28
UUCUAGCAAUAUUACGCGAU | -1.99 ± 0.22 | –
UAGUAGCAAUAUUACGCUGA | -2.25 ± 0.39 | -0.637 ± 0.11
UCGAAGCAAUAUUACGGAUG | -2.8 ± 0.13 | -1.68 ± 0.11
UCGUAGCAAUAUUACGUCAU | -3.23 ± 0.35 | -2.17 ± 0.33
AUCCAGCAAUAUUACGAUCU | -1.84 ± 0.091 | -0.641 ± 0.12
GUUAAGCAAUAUUACGAUAC | -1.34 ± 0.21 | -0.951 ± 0.28

Sequence | self-splicing fitness (ln) (30 °C) | self-splicing fitness (ln) (37 °C)
UCAUAGCAAUAUUACGCGGA | -2.71 ± 0.18 | -0.822 ± 0.11
GACGAGCAAUAUUACGACUA | -1.94 ± 0.45 | -0.17 ± 0.37
CAAUAGCAAUAUUACGUGCU | – | -2.65 ± 0.24
GACGAGCAAUAUUACGUGGU | -2.84 ± 0.1 | -2.77 ± 0.14
GUCCAGCAAUAUUACGCUGU | -0.609 ± 0.073 | -0.386 ± 0.076
CAUGAGCAAUAUUACGGCCC | -2.29 ± 0.29 | –
GGCCAGCAAUAUUACGAACA | -3.34 ± 0.28 | -2.03 ± 0.19
AGGUAGCAAUAUUACGUUUU | -2.585 ± 0.016 | -1.54 ± 0.034
CAUGAGCAAUAUUACGUACG | -0.969 ± 0.074 | 0.257 ± 0.1
AGUCAGCAAUAUUACGUUCA | -1.5 ± 0.099 | -0.803 ± 0.081
UGAGAGCAAUAUUACGCUUG | -2.26 ± 0.36 | -1.55 ± 0.33
CUGCAGCAAUAUUACGACUG | -2.56 ± 0.16 | -1.74 ± 0.2
CGGCAGCAAUAUUACGUAGG | -0.38 ± 0.075 | 0.0683 ± 0.097
CCUUAGCAAUAUUACGUUCG | -3.37 ± 0.29 | -0.857 ± 0.18
CUGUAGCAAUAUUACGAGAU | -3.86 ± 0.16 | -2.21 ± 0.15
AGGUAGCAAUAUUACGACUU | -0.167 ± 0.014 | -0.0309 ± 0.034
CCUAAGCAAUAUUACGAUAA | -2.87 ± 0.2 | -3.37 ± 0.28
CUAUAGCAAUAUUACGCAGG | -2.75 ± 0.34 | –
CGUUAGCAAUAUUACGUCAU | -2.58 ± 0.21 | -2.85 ± 0.3
CGCCAGCAAUAUUACGGCCC | -2.2 ± 0.12 | -0.207 ± 0.25
AUGAAGCAAUAUUACGUCGU | -0.896 ± 0.07 | -0.0581 ± 0.089
GCAGAGCAAUAUUACGUGUU | -4.35 ± 0.3 | -2.42 ± 0.18
CAGCAGCAAUAUUACGACCA | -1.88 ± 0.19 | -1.22 ± 0.18
UUGUAGCAAUAUUACGUAUG | -1.99 ± 0.14 | -1.42 ± 0.16
